From patent US20250057968A1, “ANTI-DLL3 ANTIBODY AND PHARMACEUTICAL USE THEREOF, AND ANTIBODY-DRUG CONJUGATE CONTAINING ANTI-DLL3 ANTIBODY” (Jiangsu Hengrui Pharmaceuticals Co., Ltd., priority 2021, published 2025) come the findings set out here.

Test [1] concerns the target T1, mouse DLL3 (KACTUS, DLL-MM103) (mouse, UniProt O88516 33-490, limits assumed).
T1 construct: bought antigen of the Biacore assay; construct not described
T1 sequence (looked up): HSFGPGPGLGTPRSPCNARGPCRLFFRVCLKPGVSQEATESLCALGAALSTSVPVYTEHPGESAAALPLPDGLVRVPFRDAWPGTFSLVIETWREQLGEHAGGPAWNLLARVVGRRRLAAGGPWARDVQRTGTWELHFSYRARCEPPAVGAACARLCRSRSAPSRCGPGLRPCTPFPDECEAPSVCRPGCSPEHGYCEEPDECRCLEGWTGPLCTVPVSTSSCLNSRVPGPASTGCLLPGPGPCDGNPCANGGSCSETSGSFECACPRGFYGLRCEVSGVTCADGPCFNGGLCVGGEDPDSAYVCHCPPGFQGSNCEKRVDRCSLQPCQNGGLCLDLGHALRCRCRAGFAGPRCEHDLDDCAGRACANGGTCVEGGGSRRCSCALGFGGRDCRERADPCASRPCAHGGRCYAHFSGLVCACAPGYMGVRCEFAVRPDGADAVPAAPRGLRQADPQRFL
Kind of test: SPR (Biacore 8K), antibody captured on Protein A chip, 1:1 fit. From the text:
(§1) Test antibodies were affinity-captured with a Protein A biosensor chip (Cat. #29127556, Cytiva) for 18 seconds, and then the antigens human DLL3 (ACRO, DLL3-H52H4), cynomolgus monkey DLL3 (KACTUS, DLL-RM103), and mouse DLL3 (KACTUS, DLL-MM103) were allowed to flow over the surface of the chip for 180 seconds, followed by 600 seconds of dissociation. Reaction signals were detected in real time using a Biacore 8K (Cytiva) instrument to obtain association and dissociation curves. After the dissociation in each experimental cycle, the biosensor chip was washed and regenerated with a 10 mM glycine-hydrochloric acid solution (pH 1.5) (Cat. #BR-1003-54, Cytiva). A 1:1 model was fit to the data. The results are shown in Table 12-1, Table 12-2, and Table 12-3.

Test [2] deals with T2, Human DLL3 full-length protein on cells (human, UniProt Q9NYJ7 27-618).
T2 construct: H1184 and DMS53 express DLL3 themselves; The cell line is named under assay; also called H1184 cells; DLL3/H82
T2 sequence: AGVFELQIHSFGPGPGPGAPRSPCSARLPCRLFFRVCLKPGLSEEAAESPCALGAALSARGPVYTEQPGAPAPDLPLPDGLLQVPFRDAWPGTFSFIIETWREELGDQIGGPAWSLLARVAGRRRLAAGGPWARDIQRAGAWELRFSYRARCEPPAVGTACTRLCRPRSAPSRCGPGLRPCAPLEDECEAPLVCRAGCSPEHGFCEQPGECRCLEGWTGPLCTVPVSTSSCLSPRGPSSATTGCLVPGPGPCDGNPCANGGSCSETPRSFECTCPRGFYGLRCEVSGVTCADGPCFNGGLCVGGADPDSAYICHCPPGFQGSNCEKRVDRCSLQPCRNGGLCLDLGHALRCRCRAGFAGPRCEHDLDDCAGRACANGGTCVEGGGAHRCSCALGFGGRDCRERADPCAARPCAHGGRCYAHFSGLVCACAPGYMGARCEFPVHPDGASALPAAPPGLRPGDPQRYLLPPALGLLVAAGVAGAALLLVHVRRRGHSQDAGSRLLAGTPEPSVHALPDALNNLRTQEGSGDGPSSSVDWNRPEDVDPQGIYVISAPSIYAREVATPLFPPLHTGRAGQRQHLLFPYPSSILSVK
As to the kind of experiment: FACS on DLL3/H82 cells. Here is the method: Cells of the DLL3-expressing small cell lung cancer cell lines H1184 (ATCC, Cat. No. CRL-5858), DLL3/H82, cynoDLL3/CHO-s, and RatDLL3/CHO-s were suspended at 1×10^6/mL in FACS buffer (1% BSA+pH 7.4 PBS), and the cell suspensions were added to a 96-well round-bottom plate (Corning, 3795) at 100 μL/well. The plate was centrifuged at 300 g for 5 min, and the supernatant was removed. Different concentrations of test antibodies were added at 100 μL/well. The plate was incubated in the dark in a refrigerator at 4° C. for 1 h. After 3 washes by centrifugation at 300 g, working concentrations of APC anti-human IgG Fc (BioLegend, 410712) or PE F(ab′)2-goat anti-human IgG (invitrogen, H10104) were added. The plate was incubated in the dark in a refrigerator at 4° C. for 40 min. After 3 washes by centrifugation at 300 g, the geometric mean fluorescence intensity was measured on an Invitrogen flow cytometer, and the EC50 values of the antibodies in binding to DLL3-expressing cells were calculated.

The target in test [3] is T1, mouse DLL3 (KACTUS, DLL-MM103). As to the kind of experiment: SPR (Biacore 8K), antibody captured on Protein A chip.
From the text: as §1

The target of test [4] is T3, human DLL3 (ACRO, DLL3-H52H4) (human, UniProt Q9NYJ7 27-479).
T3 construct: bought antigen of the Biacore assay; construct not described
T3 sequence (looked up): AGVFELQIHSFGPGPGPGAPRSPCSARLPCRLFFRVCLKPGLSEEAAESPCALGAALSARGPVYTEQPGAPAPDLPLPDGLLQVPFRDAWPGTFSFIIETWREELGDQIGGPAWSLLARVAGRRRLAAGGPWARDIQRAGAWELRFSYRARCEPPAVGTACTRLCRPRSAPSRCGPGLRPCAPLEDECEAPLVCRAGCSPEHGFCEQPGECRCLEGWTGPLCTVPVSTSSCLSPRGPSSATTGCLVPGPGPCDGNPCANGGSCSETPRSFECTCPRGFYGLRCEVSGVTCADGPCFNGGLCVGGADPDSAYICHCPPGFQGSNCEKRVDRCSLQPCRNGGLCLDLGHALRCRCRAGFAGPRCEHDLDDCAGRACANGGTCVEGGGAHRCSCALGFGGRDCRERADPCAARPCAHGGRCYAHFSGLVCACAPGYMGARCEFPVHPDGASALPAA
As to the kind of experiment: SPR (Biacore 8K), antibody captured on Protein A chip, 1:1 fit.
From the text: as §1

B1: Hu6 (antibody, human IgG1, kappa, V domains shown)
VH: EVQLVQSGSELKKPGASVKVSCKASGYTFTDYYMNWVRQAPGQGLEWMGIINPYSGVTIYNHKFKGRFALSVDKSSNTAYLQISSLKAEDTAVYYCARQDSLLDYAMDYWGQGTTVTVSS
VL: DIQMTQSPSSLSASVGDRVTITCHASQGISGNMGWLQQKPGKAPKGLIYHGANLEDGVPSRFSGSGSGADYTLTISSLQPEDFADYYCVQYAQFPYTFGGGTKVEIKR
notes: also called hAb6L4H12
For the molecule B1, in test [1], the affinity, expressed as Kd, was 6.52 nM.

B2: Hu100 (antibody, human IgG1, kappa, V domains shown)
VH: EVQLVESGGGLVKPGGSLRLSCAASGFTFSDSGMHWIRQAPGKGLEWVSYISSGSSTIHYADTVKGRFTISRDNAKNSLYLQMNSLRAEDTAVYYCASPLYYYGRSYNAVAYWGQGTTVTVSS
VL: DIQMTQSPSSLSASVGDRVTITCHASQNINVWLSWYQQKPGKVPKLLIYKASDLHTGVPSRFSGSGSGTDFTLTISSLQPEDVATYYCQQGQSYPLTFGGGTKVEIKR
notes: also called hAb100L1H1
Turning to B2, in test [2], the EC50 came to 0.24 nM and the Emax turned out to be 14300. In addition, in test [3], the binding result is reported as “no binding”. For the same molecule, in test [4], the affinity, expressed as Kd, was 0.436 nM; the koff is 0.000374 s⁻¹; the kon was determined as 858000 M⁻¹ s⁻¹.
